Positions of bridges follow the written chain, without caps; N, C: chain ends. Non-standard residues stand in square brackets, D forms with d. Primed or numbered codes have the meaning given here. No end group written: not given here. *: point of attachment. FITC = O=C1OC2(c3ccc(O)cc3Oc3cc(O)ccc32)c2ccc(NC(=S)*)cc21; trimesoyl″ = benzene-1,3,5-tricarbonyl scaffold; FITC′ = fluorescein isothiocyanate, on Lys NZ; Phg = N[C@H](C(=O)O)c1ccccc1; Nle = CCCC[C@H](N)C(=O)O; Orn = NCCC[C@H](N)C(=O)O; Abu = CC[C@H](N)C(=O)O; Dap = NC[C@H](N)C(=O)O
Molecular target: T1, Recombinant TNFα containing an N-terminal 13-aa ybbR tag (human, UniProt P01375 77-233, biotin at the ybbR tag in the ELISA assays)
T1 construct: Expressed in E. coli; Same construct used unlabelled (FA) and biotinylated on NeutrAvidin (ELISA); also called tumor necrosis factor-alpha; human TNFα; not shown: N-terminal 13-aa ybbR tag
T1 sequence (P01375 77-233): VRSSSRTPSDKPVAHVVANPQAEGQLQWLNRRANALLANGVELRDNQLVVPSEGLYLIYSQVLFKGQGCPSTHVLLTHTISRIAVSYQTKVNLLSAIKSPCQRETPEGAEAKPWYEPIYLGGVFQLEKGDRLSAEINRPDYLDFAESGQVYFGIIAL
Test: FA, FITC-peptide + TNFα titration
Method: The FA values were measured on a Molecular Devices Spectramax M5 spectrofluorimeter, with excitation and emission wavelengths at 485 and 525 nm, respectively. Equilibrium dissociation constants (KD) were determined by plotting the FA values as a function of TNFα concentration and fitting the data to the following equation $$Y = \frac{\left(Amin + \left(Amax \times \frac{Q_b}{Q_f} - Amin\right)\left(\frac{(L+x+K_d) - \sqrt{((L+x+K_d)^2 - 4Lx)}}{2L}\right)\right)}{\left(1 + \left(\frac{Q_b}{Q_f} - 1\right)\left(\frac{(L+x+K_d) - \sqrt{((L+x+K_d)^2 - 4Lx)}}{2L}\right)\right)}$$
where Y is the measured anisotropy at a given TNFα concentration x; L is the bicyclic peptide concentration; Qb/Qf is the correction fact for dye-protein interaction; Amax is the maximum anisotropy when all the peptides are bound to TNFα, while $Amin$ is the minimum anisotropy. […] The FA values were plotted against the competitor peptide concentration to determine the IC$50$ values.

| Binder | Kd |
| --- | --- |
| VY[dA]KY[dF]G[dK]H[Dap]K(FITC)-NH2 (linker (positions not given here) via trimesoyl″; not fully specified (bridges)) [C1-4] | 1700 nM |
| LY[dN]KY[dF]G[dK]H[Dap]K(FITC′)-NH2 (linker (positions not given here) via trimesoyl″; not fully specified (N-terminus, bridges)) [C1-16] | 2700 nM |
| AY[dA]KY[dF]G[dK]H[Dap]K(FITC′)-NH2 (linker (positions not given here) via trimesoyl″; not fully specified (N-terminus, bridges)) [C1-2] | 1800 nM |
| FY[dN]KY[dF]G[dK]H[Dap]K(FITC′)-NH2 (linker (positions not given here) via trimesoyl″; not fully specified (N-terminus, bridges)) [C1-17] | 2200 nM |
| VY[dN]KY[dF]G[dK]H[Dap]K(FITC′)-NH2 (linker (positions not given here) via trimesoyl″; not fully specified (N-terminus, bridges)) [C1-15] | 3200 nM |
| VY[dS]KY[dF]G[dK]H[Dap]K(FITC′)-NH2 (linker (positions not given here) via trimesoyl″; not fully specified (N-terminus, bridges)) [C1-13] | 2400 nM |
| VY[dT]KY[dF]G[dK]H[Dap]K(FITC′)-NH2 (linker (positions not given here) via trimesoyl″; not fully specified (N-terminus, bridges)) [C1-14] | 2900 nM |
| [Nle]YSKY[dF]G[dK]H[Dap]K(FITC′)-NH2 (linker (positions not given here) via trimesoyl″; not fully specified (N-terminus, bridges), L-Ser at position 3) [C1-19] | 6800 nM |
| [Phg]Y[dA]KY[dF]G[dK]H[Dap]K(FITC′)-NH2 (linker (positions not given here) via trimesoyl″; not fully specified (N-terminus, bridges)) [Anticachexin C1, Lys(FITC)-labelled (Table 2)] | 1400 nM |
| [Nle]Y[dN]KY[dF]G[dK]H[Dap]K(FITC′)-NH2 (linker (positions not given here) via trimesoyl″; not fully specified (N-terminus, bridges)) [C1-12] | 1400 nM |
| [Abu]Y[dA]KY[dF]G[dK]H[Dap]K(FITC)-NH2 (linker N-4-10 via trimesoyl″) [C1-3] | 2000 nM |
| [Phg]Y[dA]KY[dF]G[dK]H[Dap]NNNK(FITC′)-NH2 (bridge (positions not given here) via trimesoyl″; not fully specified (N-terminus, bridges); also: feature: K4 labeled with FITC, also called C1-NNNK(FITC); NNNK-tagged anticachexin C1) [Asn-Asn-Asn-Lys(FITC)-labeled anticachexin C1] | 800 nM |
| [Nle]Y[dS][Orn]Y[dF]G[dK]H[Dap]K(FITC′)-NH2 (linker (positions not given here) via trimesoyl″; not fully specified (N-terminus, bridges)) [C1-20] | 3500 nM |

From patent publication US10913773B2, “Bicyclic peptidyl inhibitor of tumor necrosis factor-alpha” (Ohio State Innovation Foundation, priority 2016, dated 2021)
